Here are results for nine molecules from US20260116958A1 (University of California, published 2026).

The term Kd denotes the constant that tells how readily two partners part at equilibrium.

For assay [1], the target named is T1, inactive BoNT/G (BoNT/Gi) (Clostridium botulinum, UniProt Q60393 1-1297).
T1 sequence: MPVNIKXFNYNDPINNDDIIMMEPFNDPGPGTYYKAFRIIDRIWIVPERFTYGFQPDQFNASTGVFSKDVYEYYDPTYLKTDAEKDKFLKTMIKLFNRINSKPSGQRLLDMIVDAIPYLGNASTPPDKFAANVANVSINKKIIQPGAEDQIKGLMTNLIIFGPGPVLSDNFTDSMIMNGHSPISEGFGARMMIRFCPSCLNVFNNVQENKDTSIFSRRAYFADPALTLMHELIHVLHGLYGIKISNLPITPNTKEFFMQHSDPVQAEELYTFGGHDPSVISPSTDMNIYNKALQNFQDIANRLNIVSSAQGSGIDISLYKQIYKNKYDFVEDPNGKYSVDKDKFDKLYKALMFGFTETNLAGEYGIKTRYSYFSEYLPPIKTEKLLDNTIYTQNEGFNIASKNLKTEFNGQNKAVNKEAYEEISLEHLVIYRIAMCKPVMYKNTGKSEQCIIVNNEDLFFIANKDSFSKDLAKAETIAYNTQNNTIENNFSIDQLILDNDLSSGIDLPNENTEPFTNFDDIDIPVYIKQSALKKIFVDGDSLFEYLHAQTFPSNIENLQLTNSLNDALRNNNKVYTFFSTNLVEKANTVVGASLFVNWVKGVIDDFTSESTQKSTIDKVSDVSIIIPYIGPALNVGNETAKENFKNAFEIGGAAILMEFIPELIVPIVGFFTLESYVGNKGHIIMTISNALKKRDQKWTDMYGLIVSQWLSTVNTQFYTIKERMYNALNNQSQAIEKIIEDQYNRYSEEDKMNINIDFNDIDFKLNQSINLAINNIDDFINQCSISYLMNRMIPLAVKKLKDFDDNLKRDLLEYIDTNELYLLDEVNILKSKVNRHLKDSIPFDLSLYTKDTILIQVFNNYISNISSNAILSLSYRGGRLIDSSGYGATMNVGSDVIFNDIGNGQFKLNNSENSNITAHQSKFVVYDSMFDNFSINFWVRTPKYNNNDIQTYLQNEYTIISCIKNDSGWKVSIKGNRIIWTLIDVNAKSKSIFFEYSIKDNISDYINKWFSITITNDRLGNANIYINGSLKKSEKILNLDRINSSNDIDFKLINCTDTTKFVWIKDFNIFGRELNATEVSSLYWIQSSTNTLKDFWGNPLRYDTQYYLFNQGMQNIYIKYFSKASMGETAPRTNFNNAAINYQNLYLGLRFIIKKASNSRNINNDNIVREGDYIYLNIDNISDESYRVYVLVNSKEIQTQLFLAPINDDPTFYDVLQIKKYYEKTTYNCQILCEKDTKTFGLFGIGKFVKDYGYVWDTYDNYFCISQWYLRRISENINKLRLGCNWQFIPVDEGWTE
Kind of assay: FACS, scFv on yeast.

Assay [2] concerns the target T1, inactive BoNT/G (BoNT/Gi). Kind of assay: scFv on yeast.
In assay [3] the target is T1, inactive BoNT/G (BoNT/Gi). Kind of assay: scFv on yeast surface.
In assay [4] the target is T1, inactive BoNT/G (BoNT/Gi). Kind of assay: titration on yeast-displayed scFv, flow cytometry, fit y = m1 + m2*M0/(m0+m3). (In general: A flow cytometer gives signals particle by particle.)
Assay [5] has as its target inactive BoNT/G (BoNT/Gi) (Clostridium botulinum) (UniProt Q60393). The assay can be described thus: flow cytometry, scFv on yeast; against hu6G6 Wt.
Assay [6] has the same target. Kind of assay: flow cytometry, scFv on yeast.
Assay [7] shares this target. The assay can be described thus: scFv on yeast surface.
The target is the same in assay [8]. The assay can be described thus: FACS, scFv on yeast.
Assay [9] has the same target. The assay can be described thus: scFv on yeast.
Assay [10] addresses T1, inactive BoNT/G (BoNT/Gi). Kind of assay: titration on yeast-displayed scFv, flow cytometry, fit y = m1 + m2*M0/(m0+m3). The source holds these as a separate data set.
Assay [11] has as its target T1, inactive BoNT/G (BoNT/Gi). The assay is described as above. This is another data set of the same source.
The target of assay [12] is T1, inactive BoNT/G (BoNT/Gi). The description is as above. This is another data set of the same source.
Assay [13] concerns the target inactive BoNT/G (BoNT/Gi) (Clostridium botulinum) (UniProt Q60393). Kind of assay: flow cytometry, scFv on yeast. The source holds these as a separate data set.
Assay [14] shares this target. The assay can be described thus: flow cytometry, scFv on yeast surface.
The target of assay [15] is T1, inactive BoNT/G (BoNT/Gi). Kind of assay: flow cytometry, scFv on yeast.

Positions count from the first letter of the chain named.

B1: hu6G11 scFv (scFv, V domains shown)
VH: QVQLVQSGAEVAKPGASVKMSCKASGYTFTSYWMHWVRQAPGQGLEWIGYINPSTGYTEYNQKFKDRATLTADKSTSTAYMELSSLRSEDTAVYYCARGYFSFAYWGQGTLVTVSS
VL: DIVMTQSPSSLSASVRDRVTITCQASHDIKNFLNWFQQKPGKAPKLLVYDASNLQVGVPSRFSASGYGTEFTLTISSLQPEDFATYYCQQANSFPRTFGQGTKVEIKR
As for B1, in assay [1], binding was put at a Kd of 4.5 nM. For the same molecule, in [2], the affinity, expressed as Kd, was 4.57 nM and the “fold improvement in BoNT/Gi binding” value was 25 fold.

B2: 6G6 scFv (scFv, V domains shown)
VH: EVQLQQSGAELVKPGASVKLSCTASGFNIKDTYMHWVKQRPEQGLEWIGRIDPANGNTKYDPKFQGKATITADTSSNTAYLQLSSLTSEDTAVYYCASGPNYYGTTWFAYWGQGTTVTVSS
VL: QIVLTQSPAILSASPGEKVTMTCRASSSVSYMHWYQQKPGSSPRLWIYRTSNLASGVPARFSGSGSGTSYSLTISSMEAEDAATYYCQQYHSYPRTFGGGTKLEIKR
In turn, B2 showed a Kd in assay [3] of 17.7 nM.

B3: 6G9 scFv (scFv, V domains shown)
VH: EVQLQQSGDDLVKPGASVKMSCKASGYTFTSYWMHWVKQRPGQGLEWIGYINPSTGYTEYNQKFKDKATLTADKSSSTAYMQLSSLTSEDSAVYYCARGGNYVDYWGQGTTLTVSS
VL: EIVLTQSPAIMSASPGEKVTISCSASSSVSYMYWYQQKPGSSPKPWIYRTSNLASGVPARFSGSGSGTSYSLTISSMEAEDAATYYCQQWSSNPYTFGGGTKLEIKR
Turning to B3, the Kd turned out to be 18.8 nM in assay [1] and 5.6 nM in assay [4].

B4: hu6G6.1 scFv (scFv)
scFv: QVQLVQSGAEVKKPGASVKLSCKASGFNIKDTYMHWVRQAPGQGLEWIGRIDPENGNTKYDPKFQGRATITAYKSINTAYLELSRLRSDDTAVYYCASGPNYYGTTWFAYWGQGTTVTVSSVDLKSGGSTSGSGKPGSGEGSSGSAREIVLTQSPSTLSASVGDRVTITCRASHGISNYLAWYQQKPGRAPKLLIYKASTLHIGVPSRFSGSGSGTEFALTISSLQPDDFSTYYCQQYNSYLPHTFGQGTRLEIK
In the case of B4, in assay [5], the Improvement over WT was 5.5 fold. Moreover, the values for the Kd in assay [6], in assay [7] and in [8] were 4.27 nM, 1.15 nM and 3.4 nM, respectively.

B5: Hu6G6.2 scFv (scFv)
scFv: B4 scFv with T78R
Turning to B5, the Kd in [9] and in assay [8] was 0.22 nM in each case.

B6: 6G10 scFv (scFv, V domains shown)
VH: EVQLQQSGPELVKPGASVKISCKASGYSFTGYFMHWVKQSHVKSLEWIGRINPYNGDIIYNQNFKDKASLTVDKSSSTAYMELHSLTSEDSAVYYCASLFGLYYFDYWGQGTTLTVSS
VL: EIVLTQSPAIMSASPGEKVTMTCSASSSVSYMHWYQQKSGTSPKRWIYDTSKLASGVPARFSGSGSGTSYSLTISSMEAEDAATYYCQQWSSNPLTFGAGTKLELKR
With B6, the dissociation constant (Kd) in assay [1] and in [10] was 2.48 nM in each case.

B7: Hu6G7.2 scFv (scFv, V domains shown)
VH: QVQLVQSGAEVKKPGASVKVSCKASDYSFTDYNIYWVRQTPGQGLEWIGYIDPYNGGTSYNQKFKGRATLTVDKSISTAYMELSRLRSDDTAVYYCALYGYDPDYTEYWGQGTTLTVSS
VL: DIVLTQSPASMAVSPGQRVTITCSASSSVSYLHWFQQKPGQSPKLWIYSTSNLASGVPARFSGSGSGTDYTLTINPMEAEDTATYYCQQRSSYPYTFGQGTKLEIKR
Consider B7, for which the Kd in [1] came out at 1.42 nM; in assay [11], 3.93 nM; in [12] it was 1.42 nM.

B8: hu6G9 scFv (scFv)
scFv: QVQLVQSGAEVKKPGASVKMSCKASGYTFTSYWMHWVRQAPGQGLEWIGYINPSTGYTEYNQKFKDRATLTADKSTSTAYMELRSLRSDDTAVYYCARGGNYVDYWGQGTTLTVSSVDLKSGGSTSGSGKPGSGEGSSGSARDIQMTQSPSTLSASVGERVTITCRASQGISSWLAWYQQKPGKAPKRLIYAVSTLQTGVPSRFSGSGSGTDLTLTINSLQPEDFATYYCQHLNSYPLTFGGGTKVEIK
For B8, the Kd in assay [6] was 18.8 nM; in assay [13], 3.78 nM; in [14], 18.8 nM.

B9: 6G7.1 scFv (scFv, V domains shown)
VH: DVQLQESGPELVKPGASVKVSCKASDYSFTDYNIYWVKQSHGKSLEWIGYIDPYNGGTSYNQKFKGKATLTVDKSSSTAFMYLNSLTSEDSAVYYCALYGYDPDYIDYWGQGTTLTVSS
VL: QIVLTQSPAIMSASPGEKVTITCSASSSVSYLHWFQQKPGTSPKLWIYSTSNLASGVPARFSGSGSGTSYSLTISRMEAEDAATYYCQQRSSYPYTFGGGTKLEIKA
On to B9, for which the Kd in assay [1] stood at 0.27 nM; in [3], 0.69 nM; in [15], 2.1 nM; in assay [11], 1.29 nM; in assay [12], 0.27 nM.
